Publication PMC12102759 (2025)

B1: PEX5 peptide 240-255 (Peroxisomal targeting signal 1 receptor), 16-mer library wild type / PEX14 Pex14 (PEX14 PEX14, residues 16-84) (parent complex)
chain 1: AEQWAAEFIQQQGTSD
chain 2: TPGSENVLPREPLIATAVKFLQNSRVRQSPLATRRAFLKKKGLTDEEIDMAFQQSGTAADEPSSLGPAT
B2: PRDM14 peptide 196-211 (PR domain zinc finger protein 14), 16-mer library wild type / NSP3 SUD-M (ORF1ab Nsp3c SUD-M, residues 1356-1493) (parent complex)
chain 1: QFTEEDLHFVLYGVTP
chain 2: LPSIISNEKQEILGTVSWNLREMLAHAEETRKLMPVCVETKAIVSTIQRKYKGIKIQEGVVDYGARFYFYTSKTTVASLINTLNDLNETLVTMPLGYVTHGLNLEEAARYMRSLKVPATVSVSSPDAVTAYNGYLTSS

Variants of: B1
Test: proteomic peptide phage display deep mutational scan (ProP-PD DMS): M13 P8 16-mer library selected against immobilised GST-tagged bait for four days (rounds), NGS of the eluted pools per day and pseudo-replica; bait immobilised on MaxiSorp plates (10 µg), library pre-cleared on GST, 2 h binding at 4 °C, five washes; one round per day, days 1-4; value from days 2 and 3

Going from chain 1 AEQWAAEMIQQQGTSD [chain 1 F8M] to chain 1 AEQWAAEYIQQQGTSD [chain 1 F8Y], the screen value falls from 0.00109 average fractional NGS count over selection days 2 and 3 (reads of this peptide / all reads for the bait, averaged over … to 0.000429 average fractional NGS count over selection days 2 and 3 (reads of this peptide / all reads for the bait, averaged over ….

First: chain 1 AEQWQAEFIQQQGTSD [chain 1 A5Q]
Second: chain 1 AEQWSAEFIQQQGTSD [chain 1 A5S]
The screen value of the first is higher: 0.00841 average fractional NGS count over selection days 2 and 3 (reads of this peptide / all reads for the bait, averaged over … for the first, 0.00197 average fractional NGS count over selection days 2 and 3 (reads of this peptide / all reads for the bait, averaged over … for the second.

Compared with chain 1 AEQWYAEFIQQQGTSD [chain 1 A5Y], chain 1 AEQWMAEFIQQQGTSD [chain 1 A5M] is higher in screen value: 0.00174 average fractional NGS count over selection days 2 and 3 (reads of this peptide / all reads for the bait, averaged over … for the first, 0.00306 average fractional NGS count over selection days 2 and 3 (reads of this peptide / all reads for the bait, averaged over … for the second.

First: chain 1 AEQWDAEFIQQQGTSD [chain 1 A5D]
Second: chain 1 AEQWKAEFIQQQGTSD [chain 1 A5K]
The screen value of the first is higher: 0.00199 average fractional NGS count over selection days 2 and 3 (reads of this peptide / all reads for the bait, averaged over … for the first, 0.00108 average fractional NGS count over selection days 2 and 3 (reads of this peptide / all reads for the bait, averaged over … for the second.

Going from chain 1 AEQWAAEFIQQQGGSD [chain 1 T14G] to chain 1 AEQWAAEFIQQQGFSD [chain 1 T14F], the screen value rises from 0.000345 average fractional NGS count over selection days 2 and 3 (reads of this peptide / all reads for the bait, averaged over … to 0.00226 average fractional NGS count over selection days 2 and 3 (reads of this peptide / all reads for the bait, averaged over ….

First: chain 1 AEQWAAEFIQQQGVSD [chain 1 T14V]
Second: chain 1 APQWAAEFIQQQGTSD [chain 1 E2P]
The screen value of the first is lower: 0.000546 average fractional NGS count over selection days 2 and 3 (reads of this peptide / all reads for the bait, averaged over … for the first, 0.000798 average fractional NGS count over selection days 2 and 3 (reads of this peptide / all reads for the bait, averaged over … for the second.

Going from chain 1 AWQWAAEFIQQQGTSD [chain 1 E2W] to chain 1 ANQWAAEFIQQQGTSD [chain 1 E2N], the screen value rises from 0.000954 average fractional NGS count over selection days 2 and 3 (reads of this peptide / all reads for the bait, averaged over … to 0.0028 average fractional NGS count over selection days 2 and 3 (reads of this peptide / all reads for the bait, averaged over ….

Going from chain 1 ATQWAAEFIQQQGTSD [chain 1 E2T] to chain 1 AGQWAAEFIQQQGTSD [chain 1 E2G], the screen value falls from 0.00227 average fractional NGS count over selection days 2 and 3 (reads of this peptide / all reads for the bait, averaged over … to 0.000866 average fractional NGS count over selection days 2 and 3 (reads of this peptide / all reads for the bait, averaged over ….

First: chain 1 ARQWAAEFIQQQGTSD [chain 1 E2R]
Second: chain 1 AEQWAAEFIQQFGTSD [chain 1 Q12F]
The screen value of the first is higher: 0.00281 average fractional NGS count over selection days 2 and 3 (reads of this peptide / all reads for the bait, averaged over … for the first, 0.00145 average fractional NGS count over selection days 2 and 3 (reads of this peptide / all reads for the bait, averaged over … for the second.

First: chain 1 AEQWAAEFIQQWGTSD [chain 1 Q12W]
Second: chain 1 AEQWAAEFIQQEGTSD [chain 1 Q12E]
The screen value of the first is lower: 0.000968 average fractional NGS count over selection days 2 and 3 (reads of this peptide / all reads for the bait, averaged over … for the first, 0.00182 average fractional NGS count over selection days 2 and 3 (reads of this peptide / all reads for the bait, averaged over … for the second.

Compared with chain 1 AEQWAAEFIQQGGTSD [chain 1 Q12G], chain 1 AEQWAAEFVQQQGTSD [chain 1 I9V] is higher in screen value: 0.00219 average fractional NGS count over selection days 2 and 3 (reads of this peptide / all reads for the bait, averaged over … for the first, 0.00275 average fractional NGS count over selection days 2 and 3 (reads of this peptide / all reads for the bait, averaged over … for the second.

Compared with chain 1 AEQWAAEFEQQQGTSD [chain 1 I9E], chain 1 AEQWAAEFNQQQGTSD [chain 1 I9N] is higher in screen value: 0.00149 average fractional NGS count over selection days 2 and 3 (reads of this peptide / all reads for the bait, averaged over … for the first, 0.00185 average fractional NGS count over selection days 2 and 3 (reads of this peptide / all reads for the bait, averaged over … for the second.

Compared with chain 1 AEQWAAEFAQQQGTSD [chain 1 I9A], chain 1 AEQWAAEFQQQQGTSD [chain 1 I9Q] is higher in screen value: 0.00188 average fractional NGS count over selection days 2 and 3 (reads of this peptide / all reads for the bait, averaged over … for the first, 0.00295 average fractional NGS count over selection days 2 and 3 (reads of this peptide / all reads for the bait, averaged over … for the second.

Going from chain 1 AEQWAAEFIPQQGTSD [chain 1 Q10P] to chain 1 AEQWAAEFIRQQGTSD [chain 1 Q10R], the screen value falls from 0.00113 average fractional NGS count over selection days 2 and 3 (reads of this peptide / all reads for the bait, averaged over … to 0.00109 average fractional NGS count over selection days 2 and 3 (reads of this peptide / all reads for the bait, averaged over ….

First: chain 1 AEQWAAEFIGQQGTSD [chain 1 Q10G]
Second: chain 1 AEQWAAVFIQQQGTSD [chain 1 E7V]
The screen value of the first is higher: 0.00258 average fractional NGS count over selection days 2 and 3 (reads of this peptide / all reads for the bait, averaged over … for the first, 0.000633 average fractional NGS count over selection days 2 and 3 (reads of this peptide / all reads for the bait, averaged over … for the second.

First: chain 1 AEQWAADFIQQQGTSD [chain 1 E7D]
Second: chain 1 AEVWAAEFIQQQGTSD [chain 1 Q3V]
The screen value of the first is higher: 0.00269 average fractional NGS count over selection days 2 and 3 (reads of this peptide / all reads for the bait, averaged over … for the first, 0.000961 average fractional NGS count over selection days 2 and 3 (reads of this peptide / all reads for the bait, averaged over … for the second.

First: chain 1 AENWAAEFIQQQGTSD [chain 1 Q3N]
Second: chain 1 AEPWAAEFIQQQGTSD [chain 1 Q3P]
The screen value of the first is higher: 0.00292 average fractional NGS count over selection days 2 and 3 (reads of this peptide / all reads for the bait, averaged over … for the first, 0.00138 average fractional NGS count over selection days 2 and 3 (reads of this peptide / all reads for the bait, averaged over … for the second.

Going from chain 1 AEHWAAEFIQQQGTSD [chain 1 Q3H] to chain 1 AERWAAEFIQQQGTSD [chain 1 Q3R], the screen value falls from 0.00576 average fractional NGS count over selection days 2 and 3 (reads of this peptide / all reads for the bait, averaged over … to 0.000498 average fractional NGS count over selection days 2 and 3 (reads of this peptide / all reads for the bait, averaged over ….

Compared with chain 1 AETWAAEFIQQQGTSD [chain 1 Q3T], chain 1 AEQWAAEFIQQQETSD [chain 1 G13E] is lower in screen value: 0.00148 average fractional NGS count over selection days 2 and 3 (reads of this peptide / all reads for the bait, averaged over … for the first, 0.000748 average fractional NGS count over selection days 2 and 3 (reads of this peptide / all reads for the bait, averaged over … for the second.

First: chain 1 AEQWAAEFIQQQHTSD [chain 1 G13H]
Second: chain 1 AEQWAAEFIQAQGTSD [chain 1 Q11A]
The screen value of the first is higher: 0.00793 average fractional NGS count over selection days 2 and 3 (reads of this peptide / all reads for the bait, averaged over … for the first, 0.00173 average fractional NGS count over selection days 2 and 3 (reads of this peptide / all reads for the bait, averaged over … for the second.

Going from chain 1 AEQWAAEFIQIQGTSD [chain 1 Q11I] to chain 1 AEQWAAEFIQKQGTSD [chain 1 Q11K], the screen value falls from 0.00199 average fractional NGS count over selection days 2 and 3 (reads of this peptide / all reads for the bait, averaged over … to 0.000704 average fractional NGS count over selection days 2 and 3 (reads of this peptide / all reads for the bait, averaged over ….

Compared with chain 1 KEQWAAEFIQQQGTSD [chain 1 A1K], chain 1 NEQWAAEFIQQQGTSD [chain 1 A1N] is higher in screen value: 0.000873 average fractional NGS count over selection days 2 and 3 (reads of this peptide / all reads for the bait, averaged over … for the first, 0.00349 average fractional NGS count over selection days 2 and 3 (reads of this peptide / all reads for the bait, averaged over … for the second.

First: chain 1 YEQWAAEFIQQQGTSD [chain 1 A1Y]
Second: chain 1 DEQWAAEFIQQQGTSD [chain 1 A1D]
The screen value of the first is higher: 0.017 average fractional NGS count over selection days 2 and 3 (reads of this peptide / all reads for the bait, averaged over … for the first, 0.00705 average fractional NGS count over selection days 2 and 3 (reads of this peptide / all reads for the bait, averaged over … for the second.

Going from chain 1 WEQWAAEFIQQQGTSD [chain 1 A1W] to chain 1 MEQWAAEFIQQQGTSD [chain 1 A1M], the screen value falls from 0.00504 average fractional NGS count over selection days 2 and 3 (reads of this peptide / all reads for the bait, averaged over … to 0.000375 average fractional NGS count over selection days 2 and 3 (reads of this peptide / all reads for the bait, averaged over ….

Going from chain 1 EEQWAAEFIQQQGTSD [chain 1 A1E] to chain 1 AEQWAAEFIQQQGTQD [chain 1 S15Q], the screen value rises from 0.000945 average fractional NGS count over selection days 2 and 3 (reads of this peptide / all reads for the bait, averaged over … to 0.0029 average fractional NGS count over selection days 2 and 3 (reads of this peptide / all reads for the bait, averaged over ….

Compared with chain 1 AEQWAFEFIQQQGTSD [chain 1 A6F], chain 1 AEQWAEEFIQQQGTSD [chain 1 A6E] is lower in screen value: 0.00131 average fractional NGS count over selection days 2 and 3 (reads of this peptide / all reads for the bait, averaged over … for the first, 0.000449 average fractional NGS count over selection days 2 and 3 (reads of this peptide / all reads for the bait, averaged over … for the second.

First: chain 1 AEQWAWEFIQQQGTSD [chain 1 A6W]
Second: chain 1 AEQWATEFIQQQGTSD [chain 1 A6T]
The screen value of the first is lower: 0.00422 average fractional NGS count over selection days 2 and 3 (reads of this peptide / all reads for the bait, averaged over … for the first, 0.0091 average fractional NGS count over selection days 2 and 3 (reads of this peptide / all reads for the bait, averaged over … for the second.

chain 1 AEQWANEFIQQQGTSD [chain 1 A6N] was tested, and the screen value was 0.00234 average fractional NGS count over selection days 2 and 3 (reads of this peptide / all reads for the bait, averaged over ….

Variants of: B2
Test: bait immobilised on MaxiSorp plates (10 µg), library pre-cleared on GST, 2 h binding at 4 °C, five washes; one round per day, days 1-4; value from days 2 and 3

Going from chain 1 QFTEEDLNFVLYGVTP [chain 1 H8N] to chain 1 QFTEEDLRFVLYGVTP [chain 1 H8R], the screen value rises from 0.00229 average fractional NGS count over selection days 2 and 3 (reads of this peptide / all reads for the bait, averaged over … to 0.0209 average fractional NGS count over selection days 2 and 3 (reads of this peptide / all reads for the bait, averaged over ….

Compared with chain 1 QFTEEDLVFVLYGVTP [chain 1 H8V], chain 1 QFTEEDLAFVLYGVTP [chain 1 H8A] is higher in screen value: 0.000167 average fractional NGS count over selection days 2 and 3 (reads of this peptide / all reads for the bait, averaged over … for the first, 0.00113 average fractional NGS count over selection days 2 and 3 (reads of this peptide / all reads for the bait, averaged over … for the second.

With chain 1 QFTEEDLTFVLYGVTP [chain 1 H8T] the screen value was 0.000106 average fractional NGS count over selection days 2 and 3 (reads of this peptide / all reads for the bait, averaged over ….
